# Experimental data taken from patent US20060084135.
# T1: p53-382 acetylated peptide (Fluor de Lys-SIRT1), RHKK(Ac)
# T1 chain: RHKK
# B1: recombinant human SIRT1 (protein)
# chain: MADEAALALQPGGSPSAAGADREAASSPAGEPLRKRPRRDGPGLERSPGEPGGAAPEREVPAAARGCPGAAAAALWREAEAEAAAAGGEQEAQATAAAGEGDNGPGLQGPSREPPLADNLYDEDDDDEGEEEEEAAAAAIGYRDNLLFGDEIITNGFHSCESDEEDRASHASSSDWTPRPRIGPYTFVQQHLMIGTDPRTILKDLLPETIPPPELDDMTLWQIVINILSEPPKRKKRKDINTIEDAVKLLQECKKIIVLTGAGVSVSCGIPDFRSRDGIYARLAVDFPDLPDPQAMFDIEYFRKDPRPFFKFAKEIYPGQFQPSLCHKFIALSDKEGKLLRNYTQNIDTLEQVAGIQRIIQCHGSFATASCLICKYKVDCEAVRGDIFNQVVPRCPRCPADEPLAIMKPEIVFFGENLPEQFHRAMKYDKDEVDLLIVIGSSLKVRPVALIPSSIPHEVPQILINREPLPHLHFDVELLGDCDVIINELCHRLGGEYAKLCCNPVKLSEITEKPPRTQKELAYLSELPPTPLHVSEDSSSPERTSPPDSSVIVTLLDQAAKSNDDLDVSESKGCMEEKPQEVQTSRNVESIAEQMENPDLKNVGSSTGEKNERTSVAGTVRKCWPNRVAKEQISRRLDGNQYLFLPPNRYIFHGAEVYSDSEDDVLSSSSCGSNSDSGTCQSPSLEEPMEDESEIEEFYNGLEDEPDVPERAGGAGFGTDGDDQEAINEAISVKQEVTDMNYPSNKS
# Target: T1, p53-382 acetylated peptide (Fluor de …)
protein,measurement,value
B1,"Km (+100 µM resveratrol), SIRT1 initial rate vs p53-382 acetylated peptide concentration at 3 mM NAD+","Km(+resveratrol, Δ)=1.8 µM"
same,"Km (control), SIRT1 initial rate vs p53-382 acetylated peptide concentration at 3 mM NAD+","Km(control, ▪)=64 µM"
same,fold decrease of the acetylated peptide Km with 100 µM resveratrol,"Its effect on the acetylated peptide Km was particularly striking, amounting to a 35-fold decrease"
